Values joined by “and” are separate entries in the source; they are usually repeats but may differ in a detail not shown here. Identical values can stand only once. Bridges are numbered along the chain shown (N, C = ends). [ ]: non-standard residue; d: D form. pY = N[C@@H](Cc1ccc(OP(=O)(O)O)cc1)C(=O)O; R8 = C=CCCCCCC[C@@](C)(N)C(=O)O; S5 = C=CCCC[C@](C)(N)C(=O)O; F4g = not defined here; G1a = not defined here
Tests used:
MDM2 (In-house, 41 kD) [1] = biological target: MDM2 (In-house, 41 kD) (UniProt Q00987); experiment: competitive fluorescence polarization on MDM2 against FAM-labeled linear peptide; grade, scale in paragraph 462
MDM2 (In-house, 41 kD) (UniProt Q00987), sequence (Q00987 1-125 limits assumed): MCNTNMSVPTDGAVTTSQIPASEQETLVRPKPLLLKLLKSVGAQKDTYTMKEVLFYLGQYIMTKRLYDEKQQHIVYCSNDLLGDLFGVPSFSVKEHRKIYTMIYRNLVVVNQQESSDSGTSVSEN

MDMX (In-house, 40 kD) [2] = biological target: T1, MDMX (In-house, 40 kD) (UniProt O15151); experiment: competitive fluorescence polarization on MDMX against FAM-labeled linear peptide; grade, scale in paragraph 462
T1 sequence (looked up): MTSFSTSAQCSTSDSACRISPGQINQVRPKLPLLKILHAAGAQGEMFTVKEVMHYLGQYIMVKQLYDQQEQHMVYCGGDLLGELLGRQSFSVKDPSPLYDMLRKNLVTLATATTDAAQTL

MDM2 (In-house, 41 kD) [3] = biological target: T2, MDM2 (In-house, 41 kD) (UniProt Q00987 1-125, limits assumed); experiment: competitive fluorescence polarization on MDM2 against FAM-labeled linear peptide; grade, scale in paragraph 462
T2 construct: Only 'In-house, 41 kD' is said of the protein used in the fluorescence polarization assays; also called HDM2
T2 sequence (Q00987 1-125 limits assumed): as the sequence (Q00987 1-125 limits assumed) above
Method: Then, dilute from 100 µM to 10 µM with water (dilution 1:10) and then dilute with FP buffer from 10 µM to 40 nM (dilution 1:250). This is the working solution which will be a 10 nM concentration in well (dilution 1:4). Keep the diluted FAM labeled peptide in the dark until use. […] Dilute 10 mM (in 100% DMSO) with DMSO to 5 mM (dilution 1:2). Then, dilute from 5 mM to 500 µM with H₂O (dilution 1:10) and then dilute with FP buffer from 500 µM to 20 µM (dilution 1:25). […] Add 10 µl of 10 nM (4×) of FAM labeled peptide into each well and incubate for 3 hr to read.

MDMX (In-house, 40 kD) [4] = biological target: T3, MDMX (In-house, 40 kD) (UniProt O15151 1-120, limits assumed); experiment: competitive fluorescence polarization on MDMX against FAM-labeled linear peptide; grade, scale in paragraph 462
T3 construct: Only 'In-house, 40 kD' is said of the protein used in the fluorescence polarization assays; also called MDM4
T3 sequence (looked up): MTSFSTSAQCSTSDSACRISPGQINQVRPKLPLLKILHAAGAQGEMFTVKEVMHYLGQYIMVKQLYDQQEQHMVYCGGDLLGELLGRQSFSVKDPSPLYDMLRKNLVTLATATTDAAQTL
Method: Dilute MDMX (In-house, 40 kD) into FP buffer (High salt buffer-200 mM Nacl, 5 mM CHAPS, pH 7.5.) to make 300 nM (2×) working stock solution. […] Then, dilute from 100 µM to 10 µM with water (dilution 1:10) and then dilute with FP buffer from 10 µM to 40 nM (dilution 1:250). […] Keep the diluted FAM labeled peptide in the dark until use. […] Dilute 10 mM (in 100% DMSO) with DMSO to 5 mM (dilution 1:2). Then, dilute from 5 mM to 500 µM with H₂O (dilution 1:10) and then dilute with FP buffer from 500 µM to 20 µM (dilution 1:25). […] Add 10 µl of 10 nM (4×) of FAM labeled peptide into each well and incubate for 3 hr to read.

Q: “SP758, Ac-tawya$s8f4CF3e1d1r$r5a-NH2 (peptide)” was tested. Which IC50 (MDM2 (In-house, 41 kD) [1]) did it give?
A: The IC50 was > 10 nM and < 100 nM.

Q: What about the IC50 (MDMX (In-house, 40 kD) [2]) of the same molecule?
A: The IC50 was greater than 1000 nM.

Q: How did the IC50 (MDM2 (In-house, 41 kD) [1]) turn out when “SP755, Ac-tawyanf4CF3e$r511r$r5a-NH2 (peptide)” was run?
A: Its IC50 is less than 10 nM.

Q: What about the IC50 (MDMX (In-house, 40 kD) [2]) of the same molecule?
A: Its IC50 is greater than 1000 nM.

Q: Which IC50 (MDM2 (In-house, 41 kD) [1]) does the source give for “SP756, Ac-t$s8wyanf4CF3e$r511r-NH2 (peptide)” here?
A: Its IC50 is > 10 nM and < 100 nM.

Q: And the IC50 (MDMX (In-house, 40 kD) [2])?
A: The IC50 was greater than 1000 nM.

Q: For “SP754, Ac-tawya$r5f4CF3ek$r51r-NH2 (peptide)”, which IC50 (MDM2 (In-house, 41 kD) [1]) is on record?
A: The IC50 was > 100 nM and < 1000 nM.

Q: What about the IC50 (MDMX (In-house, 40 kD) [2]) of the same molecule?
A: Its IC50 is greater than 1000 nM.

Q: What does the source list for “SP757, Ac-tawy$s8nf4CF3ek11$r5a-NH2 (peptide)”?
A: IC50 (MDM2 (In-house, 41 kD) [1]): < 10 nM; IC50 (MDMX (In-house, 40 kD) [2]): > 1000 nM

Q: “SP753, Ac-tawy$r5nf4CF3e$r511r-NH2 (peptide)” was tested. Which IC50 (MDM2 (In-house, 41 kD) [1]) did it give?
A: Its IC50 is > 10 nM and < 100 nM.

Q: And the IC50 (MDMX (In-house, 40 kD) [2])?
A: Its IC50 is greater than 1000 nM.

Q: Which IC50 (MDM2 (In-house, 41 kD) [1]) does the source give for “SP752, Ac-t$r5wya$r5f4CF3e1d1r-NH2 (peptide)” here?
A: The IC50 was > 100 nM and < 1000 nM.

Q: And the IC50 (MDMX (In-house, 40 kD) [2])?
A: The IC50 was greater than 1000 nM.

Q: Which Ki (MDM2 (In-house, 41 kD) [1]) does the source give for Ac-LTF[R8]E[pY]WAQL[S5]AAAAA[dA]-NH2 (staple 4-11) [SP615, Ac-LTF$r8EpYWAQL$AAAAAa-NH2] here?
A: The Ki was less than 10 nM.

Q: And the Ki (MDMX (In-house, 40 kD) [2])?
A: The Ki was less than 10 nM.

Q: Which Ki (MDM2 (In-house, 41 kD) [3]) does the source give for Ac-LTF[R8][G1a]YWAQL[S5]AAAAA[dA]-NH2 (staple 4-11; not fully specified; reading uncertain, stapled peptidomimetic macrocycle) [SP602, Ac-LTF$r8G1aYWAQL$AAAAAa-NH2] here?
A: Its Ki is no more than 10 nM.

Q: And the Ki (MDMX (In-house, 40 kD) [4])?
A: The Ki was no more than 10 nM.

Q: How did the Ki (MDM2 (In-house, 41 kD) [3]) turn out when Ac-LTF[R8]QYWAQL[S5]AAAAA[dA]-NH2 (staple 4-11, stapled peptidomimetic macrocycle) [SP600, Ac-LTF$r8QYWAQL$AAAAAa-NH2] was run?
A: Its Ki is no more than 10 nM.

Q: And the Ki (MDMX (In-house, 40 kD) [4])?
A: The Ki was no more than 10 nM.

Q: How did the Ki (MDM2 (In-house, 41 kD) [3]) turn out when Ac-LTF[R8][F4g]YWAQL[S5]AAAAA[dA]-NH2 (staple 4-11; not fully specified; reading uncertain, stapled peptidomimetic macrocycle) [SP603, Ac-LTF$r8F4gYWAQL$AAAAAa-NH2] was run?
A: Its Ki is no more than 10 nM.

Q: And the Ki (MDMX (In-house, 40 kD) [4])?
A: Its Ki is no more than 10 nM.

Q: Which Ki (MDM2 (In-house, 41 kD) [3]) does the source give for Ac-LTF[R8]EYWALL[S5]AAAAA[dA]-NH2 (staple 4-11, stapled peptidomimetic macrocycle) [SP608, Ac-LTF$r8EYWALL$AAAAAa-NH2] here?
A: Its Ki is no more than 10 nM.

Q: For Ac-LTF[R8]EYWASL[S5]AAAAA[dA]-NH2 (staple 4-11, stapled peptidomimetic macrocycle) [SP610, Ac-LTF$r8EYWASL$AAAAAa-NH2], which Ki (MDM2 (In-house, 41 kD) [3]) is on record?
A: The Ki was no more than 10 nM.

Q: For Ac-LTF[R8]EYWANL[S5]AAAAA[dA]-NH2 (staple 4-11, stapled peptidomimetic macrocycle) [SP611, Ac-LTF$r8EYWANL$AAAAAa-NH2], which Ki (MDM2 (In-house, 41 kD) [3]) is on record?
A: The Ki was no more than 10 nM.

Q: How did the Ki (MDM2 (In-house, 41 kD) [3]) turn out when Ac-LTF[R8]EYWAHL[S5]AAAAA[dA]-NH2 (staple 4-11, stapled peptidomimetic macrocycle) [SP613, Ac-LTF$r8EYWAHL$AAAAAa-NH2] was run?
A: Its Ki is no more than 10 nM.
